Test results taken from paper doi:10.1101/2024.04.25.591137 (bioRxiv, 2024).

Molecular target: the molecule itself
Test: negative-stain TEM of fibrils

Protein	binding result
Ac-LVKPSFYVYSRVKNLNSSRV-NH2 [LV20, 20-residue SARS-CoV-2 envelope protein peptide LVKPSFYVYSRVKNLNSSRV]	binds
Ac-SFYVYSRVK-NH2 [SK9, SARS-CoV-2 envelope protein peptide SFYVYSRVK]	binds
